Laboratory results published in the supplement of paper PMC9170038.

tested on: K4 kissing-loop RNA reporter; experiment: apparent KD of K4 kissing-loop reporter; higher = weaker reporter binding; conditions: Eterna round: R107; input ligand: arginine 13.2 mM
Description: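 RNA-MaP round R107: designed RNA switches with theophylline, tryptophan, arginine or FMN aptamers are transcribed on-chip within common flanks. They are titrated with a labelled K4 kissing-loop RNA reporter in RNA-MaP buffer (100 mM Tris pH 7.5, 80 mM KCl, 4 mM MgCl2), without ligand or with the indicated ligand. Median apparent KD per design.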
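Also: bound reporter read as fluorescence of individual clusters on recovered sequencing chips by microscopy, with normalized cluster intensities fitted with a binding model.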

| Sequence | apparent KD of K4 kissing-loop reporter [nM] |
| --- | --- |
| AAACAUCACUGGGAGUGAUGUUCUCAGUGACGAGGACCGGUACGGCCGCCACUCGCGAGAGAUAUAGUCUAGUAUUGACUGCAUU [Excl Tryptophan A V11] | 244 |
| UUUAUUAAGACGGCCGCCACUGAUUCAGAGUGAUGUUCUGAUAAAAUUUUAGAUAAUAAUAACAGCAGGACCGGGUCAAUUAUUA [JR_SSTryptoB_Sub014] | 211 |
| UGGAGUUGACGAAAAGUCAACUCCUGAGAAGGAGCGGACGAAAGUCCAGGUAGGUCGCUCACUGCCAGUGAUGUUGGUAAAUAAA [#OpenEnded 1 - Direct theophylline transfer] | 175 |
| AAAGCUCUAUAGAGCAAGAGGUCAACUGAUACCAGAGGCUAUAGCCUCCCUUGGCAGCGGAACGAGUGAUGUUCGAGACCUCAAA [AK6.1 SS Theophylline A] | 1120 |
| AAGCAGUCACUCGUAGCCAUCGAAGAUGGUCGAGGACCGGUACGGCCGCCACUCGGAGUGAUGUUCCGAAGACUGCAAAAUAAAA | 313 |
| UGUGUUGUUUUGAUGUUUGGUGUUGCAUGGCAGGAUAUCGUAGAGGCGAGAAGGGCUUUUGAGCGGUAUGAGUGAUGUUUGUAGG [p,,mmullin] | 309 |

same assay, conditions: Eterna round: R107; input ligand: none

| Sequence | apparent KD of K4 kissing-loop reporter [nM] |
| --- | --- |
| UUUUUAAUCGCAGAUACCAGUCCAGAAUAAAUACUAUAGUGAUGUUAUAAAUAAGGAAAGGACCCUUGGCAGCUGUACUAUAUUU [AstrosSsTheB#7] | 668 |
| AACACUCAACGGAGUGAUGUUCUGGAAAACCGAGGACCGGUACGGCCGCCACUCGGAAAUGAGUGAGUCCUACGAAAAGUAGGAC [Omei inspired 2] | 150 |
| AAUUUUAAUAAUAAAUAAUAAAUAAAUGAUACCAGUAUUUUUUUUUACCCUUGGCAGCGUAUAUAAGGGCAGUGAUGUUGUCAGA [whbob_SS_Theo_A_w59] | 212 |
| AGAUGUUCCUGGGAUACCAGUCGGAGUCUCAGAGCUCGGAGUGAUGUUCUGGGAUGUUUCGGCCCUUGGCAGCUCUGGGACUCCC [#2 Exclusion - Theophylline B Attempt #24 (HarryS)] | 642 |
| GGGCGUGGCGCGGCCGCCACUGCGCCUGGGUGCUCGCUGAGUGAUGUUCGUCGGCGGUUGGGUGGUAGGACCGGGUGCUGGUCGG [BDazzled - #11 SS Tryptophan B] | 629 |
| CGUGAAGCCCAGAGGUGAUGUAUAGUAUCGCGAGGACCGGUACGGCCGCCACUCGUGAAGAGAAAGGAGUGAUGUUCCGUAAUGG | 595 |
| AAUAAAAUCACGGCCGCCACUAAUGCUAGUAUUAGCAGUGAUGUUGCUAUGUAUAUUUUAUUUAAUAGGACCGGGUGAAUAUUUA [#23 K4 Tryptophan B Exclusion] | 346 |
| AUUAAUUUCAGAGGAUAUCGUAUUAAUAUUUUAUCUAUCUAUAUAUGCAGUGAUGUUGCAAUAAUUCGAGAAGGCUGAUUUAUAA [JR_ExcFMNB_Sub009] | 52.3 |
| AAAUUUAUAUUAGAUACCAGUAUUUUGAAUGUUUAUUAUGACAAGAGUGAUGUUCUUGUAUGCCCUUGGCAGCUGGUAUGGGUUU [KL-XTheo-B23] | 111 |
| AAGGUUGUGCAUGGGAGUGAUGUUCCCAGGCAGGAUAUCGCUCACGCGAGAAGGGCUAGCACAACCGCUCAAGAAACUUGAGCAA [Omei KL FMN A SS C v4] | 113 |
| UCCAUGCGCGCACGGUACUUGCCCGCAUAUCGAGGACCGGUACGGCCGCCACUCGUGCCAGUGAUGUUGGCCGGAGAGCCUUAUG [theeternabot_sameState_KL_Trp_A_22] | 475 |
| UGACAUUGCUCAGAUACCAGACUUGAGGAUCACCCAGGUGCCAAAUAAACGUACAUAAAAGUCCCUUGGCAGCUGAGCAAUGUCU [TheoBX 11] | 55.9 |
| CAUGUGUCUGGAAGGAGCGCGGGUUGGUUAAACACUGUCGCGGGCCAGUGAUGUUGGAAUCCGCAGGUAGGUCGCCAGCCACUUG [Araton] | 350 |
| AAGAGGACCAACAUCACUAGUCCUCGAAUACGAGGACCGGUACGGCCGCCACUCGAUAACUUGCAGUGAUGUUGCAAGUAAGAAU [(T)''-(K)'-(T)'-(T1)-(T2)-(K1)-(K2)_Design3] | 307 |
| CCUAUCUCAUACGAUACCAGUCUAUUAAAACGAGUGAUGUUCGAAAAUUUGCCAUAUAAUGACCCUUGGCAGCGUAUGGGAUAGG [Ex Theophylline B K4 8] | 203 |
| AGUGGACGUGUCCGGAGUGAUGUUCCGGAUACCAGACACGAAAGUGUCCCUUGGCAGCAGGAGUGAUGUUCCGGCGUUCACUAAA [Omei KL Theo A Exc B v3] | 314 |
| UAAUGCAUGACGGCCGCCACUAGUACUGGAGUGAUGUUGUGGUACGGCGGCAAUAUAGGGUGGACUAGGACCGGGUCAUGCAUAU [KL-XTryp-B12 #analogue] | 346 |
| UGUCAUUGGUCGGCCGCCACUGGACCGGGUAUAAUCCCAGUGAUGUUGGUAAAAUACGGCCGCCACAGGACCGGGACCGAUGACU [TrypBS 15 #DoubleAptamer #SwitchBubble #K4Middle] | 240 |
| AAUAAAAUCACGGCCGCCACUGAUAUCCAUAUUAGGAGUGAUGUUCCUUUGACUAUAUAAUUUUACAGGACCGGGUGAAUAUUUA [JR_Nu_SSTryptoB_Sub027] | 120 |
| CCCAAGGGCGAACCGGUAUGAUCACCGGAUACCAGAGGCGAAAGCCUCCCUUGGCAGCCGGUUGUAGUGAUGUUACACUGGUUCU | 88.7 |
| GUGAAGGAGCUGCAGUGAUGUUGCAGAGACUAGGAUAUCAGGAAACUGAGAAGGAGUCAACUCCUUCACCUAGACUGCAACAUAA [[F]''-[K1]-[K2]-[F1]-[F2]-[F2]'-[F1]'-[K]'_Design3] | 67.7 |
